“Also recorded” adds a separate entry of the source. Like-named read-outs stand apart in the source and are kept apart here. Values belong to the molecule of their own block, whether it stands above or below them. Ends that are not written are not given here.
Columns and labels:
[1] = test system: anti-[P1]PTH(−6 to +3)^Biotin antibody; experiment: Epitope characterization ELISA with anti-[P1]PTH(−6 to +3)^Biotin capture antibody; assay type: binding
Excerpt: For additional characterization of our anti-[P1]PTH(−6 to +3) antibody, we biotin-labeled this antibody for use as capture antibody (anti-[P1]PTH(−6 to +3)^Biotin antibody) in combination with the HRP-labeled detection antibody from the intact PTH assay (Immutopics) that is directed against PTH(13-34) (SI Appendix, Fig. S3).
(§1) pro[P1]PTH(−6 to +3) was conjugated to SulfoLink coupling gel via the C-terminal cysteine (PIERCE) for affinity purification of the rabbit antibodies, which were then HRP-labeled using EZ-Link Plus Activated Peroxidase Kit (Thermo Fisher Scientific), following the manufacturer’s protocol. The anti-pro[P1]PTH(−6 to +3) antibody was also conjugated to biotin using EZ-LinkTM Sulfo-NHS-LC-Biotinylation Kit (Thermo Fisher Scientific), following the manufacturer’s protocol, except using 40-fold instead of 20-fold excess of biotin. After biotin coupling, 15% of rabbit serum were added to the biotinylated antibody [anti-pro[P1]PTH(−6 to +3)^Biotin].
100 Defining the epitope of the antibody raised against [P1]PTH(-6 to +15) that was affinity purified with
101 immobilized [P1]PTH(-6 to +3).
102 The anti-[P1]PTH(-6 to +3) antibody was coupled to biotin (anti-[P1]PTH(-6 to +3)Biotin antibody) and
103 used as capture antibody in combination with the detection anti-PTH(13-34) antibody provided in
104 the intact PTH assay (Immutopics). Epitope of the affinity purified anti-[P1]PTH(-6 to +3)Biotin
105 antibody was partially defined by using [P1]PTH(-6 to +34) and [S1]PTH(-6 to +34), as well as
111 recognized by the anti-[P1]PTH(-6 to +3)Biotin antibody resides predominantly in the -6 to -4 region.
(1 picture or pasted object on this page, not shown here)

[2] = target: T1, human PTHR1 (SGS-72 cells, SaOS-2 derived) (Homo sapiens, UniProt Q03431); experiment: PTH-stimulated cAMP formation in SGS-72 reporter cells (Glosensor); assay type: cell-based; details: for Biological activity relative to corresponding PTH(1-34) analog (in words): compared with PTH(1-34) analogs
T1 construct: SGS-72 cells, i.e., human osteosarcoma SaOS-2 cells stably expressing the Glosensor cAMP reporter; endogenous in cells; host or cells: SGS-72 (human osteosarcoma SaOS-2-derived)
T1 sequence (Q03431 27-593): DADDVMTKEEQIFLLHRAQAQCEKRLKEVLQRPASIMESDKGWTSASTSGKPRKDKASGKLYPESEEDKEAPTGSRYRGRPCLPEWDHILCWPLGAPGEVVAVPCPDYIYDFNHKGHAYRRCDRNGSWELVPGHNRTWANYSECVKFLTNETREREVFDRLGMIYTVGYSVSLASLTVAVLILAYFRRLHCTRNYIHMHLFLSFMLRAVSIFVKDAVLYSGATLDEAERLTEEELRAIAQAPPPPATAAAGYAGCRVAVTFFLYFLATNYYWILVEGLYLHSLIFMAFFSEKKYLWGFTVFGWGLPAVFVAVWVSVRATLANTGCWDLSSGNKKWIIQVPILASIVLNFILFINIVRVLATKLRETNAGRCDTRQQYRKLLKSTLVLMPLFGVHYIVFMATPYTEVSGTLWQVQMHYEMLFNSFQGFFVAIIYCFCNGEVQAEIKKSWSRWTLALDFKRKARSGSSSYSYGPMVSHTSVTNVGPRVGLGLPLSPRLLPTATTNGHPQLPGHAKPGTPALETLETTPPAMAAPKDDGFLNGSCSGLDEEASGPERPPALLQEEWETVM
Method: (§2) SGS-72 cells, i.e., human osteosarcoma SaOS-2 cells stably expressing the Glosensor cAMP reporter, were maintained in modified McCoy’s 5A medium [15% FBS, 1% penicillin/streptomycin, and 1% nonessential amino acids, as described ([29])]. GP2.3 cells, i.e., HEK293 cells stably expressing the human PTHR1 and the Glosensor cAMP reporter, were maintained in DMEM (10% FBS, 1% penicillin/streptomycin), as described ([24]). Cells were seeded into 96‐well white plates (40,000 cells/100µL/well); 24 to 48 h after confluency, the wells were rinsed with 100 µL carbon dioxide-independent culture medium (CIDB; Life Technologies) containing 0.1% bovine serum albumin (BSA), which was then replaced with 90 µL of luciferin (0.5 mM in CIDB) for 15 min before adding 10 µL of increasing concentrations of PTH analogs diluted in CIDB or 10 µL of CIDB, and then measuring cAMP‐dependent luminescence at 2‐min intervals using a PerkinElmer Envision plate reader (PerkinElmer), as described ([24]). […] GP2.3 cells were also used for the evaluation of CM from transfected COS-7 cells; PTH(1-84) served as control.
SGS-72 cells were used for assessing PTH-stimulated cAMP formation. 10 µL of increasing concentrations of [S1]PTH(−6 to +34) or [P1]PTH(−6 to +34) before and after incubation with furin were diluted in CIDB buffer.

human PTHR1 = target: T2, human PTHR1 (Homo sapiens, UniProt Q03431); experiment: PTH-stimulated cAMP formation in GP2.3 reporter cells (Glosensor); assay type: cell-based; details: GP2.3 cells; synthetic peptides; mean ± SEM, n = 3; maximum luminescence 20 to 23 min
T2 construct: expressed in transfected cells; host or cells: GP2.3 (HEK293-derived)
T2 sequence (Q03431 27-593): T1 sequence (Q03431 27-593)
Method: as §2

furin = target: T3, furin (Homo sapiens, UniProt P09958); experiment: Assessment of PTH analogs cleavage by furin (HPLC and MassSpec); assay type: biochemical; details: peptide 10 µg with furin 8U, HEPES buffer pH 7.4, RT, 60 min, final volume 30 µL; HPLC C18 4-76% ACN/0.05% TFA over 40 min and MassSpec
T3 construct: purchased New England Biolabs
T3 sequence (P09958 108-595 limits assumed): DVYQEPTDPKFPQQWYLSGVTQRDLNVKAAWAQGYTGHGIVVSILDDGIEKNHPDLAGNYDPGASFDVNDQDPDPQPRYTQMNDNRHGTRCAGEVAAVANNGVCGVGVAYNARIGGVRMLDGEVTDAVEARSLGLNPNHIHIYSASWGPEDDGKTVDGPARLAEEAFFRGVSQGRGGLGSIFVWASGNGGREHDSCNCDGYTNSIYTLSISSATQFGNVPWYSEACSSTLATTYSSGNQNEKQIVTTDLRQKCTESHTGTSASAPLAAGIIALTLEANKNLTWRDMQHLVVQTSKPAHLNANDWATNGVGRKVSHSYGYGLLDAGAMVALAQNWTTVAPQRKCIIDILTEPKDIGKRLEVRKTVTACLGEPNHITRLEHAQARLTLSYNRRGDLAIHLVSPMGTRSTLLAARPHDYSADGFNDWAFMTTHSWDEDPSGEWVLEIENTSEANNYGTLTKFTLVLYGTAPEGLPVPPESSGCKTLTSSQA
Method: [S1]PTH(−6 to +34) or [P1]PTH(−6 to +34) (10 µg/10 µL 10 mM acetic acid) was incubated with furin (8U/4 μL) (New England Biolabs) and furin buffer (50 mM HEPES (4-(2-hydroxyethyl)-1-piperazineethanesulfonic acid)–KOH (potassium hydroxide) (pH 7.4), 150 mM NaCl, 5 mM MgCl2, 16 mM imidazole, 2% glycerol, 0.15 mM EGTA, 500 μM ATP, 0.5% Triton-X100, 2 mM CaCl2, and 2 mM β-mercaptoethanol) (RT, 60 min; final volume 30 µL) (New England Biolabs), as recommended by the manufacturer, before adding EGTA (100 μM, 3 μL). In some experiments, 1 μL of the reaction buffer was replaced with the furin inhibitor Decanoyl-RVKR-CMK (Tocris Bioscience; 50 μM in water). To assess cleavage, 5 µL of furin-treated or untreated peptides (1.5 µg each) was loaded onto a C18 column (2.1 mm × 150 mm, Higgins Analytical, Inc.), and a gradient of 4 to 76% ACN/0.05% TFA over 40 min (200 µL/min) was applied. To determine the molecular weight, 10 µL of furin-treated or untreated peptides was loaded onto a C18 ZipTip (Millipore Corporation) that had been rinsed with 100% ACN/0.01% TFA (2 × 20 μL) followed by equilibration with H2O/0.01% TFA (5 × 20 μL). Peptide elution with 100% ACN/0.01% TFA was followed by speed vac and MassSpec analysis.

[3] = test system: anti-pro[P1]PTH^HRP antibody; experiment: pro[P1]PTH immunoassay with anti-pro[P1]PTH^HRP detection antibody; assay type: binding
Excerpt: To allow quantification of pro[P1]PTH in CM and in plasma of our patients with the homozygous P1 mutation, we replaced the detection antibody in an intact PTH assay (Immutopics) with a horseradish peroxidase (HRP)-labeled antibody raised against pro[P1]PTH(−6 to +15), which was affinity purified with pro[P1]PTH(−6 to +3) (anti-pro[P1]PTH^HRP antibody) (Materials and Methods).
as §1, with “+3)^Biotin]. […]” for “+3)^Biotin].”

[4] = anti-[P1]PTH(−6 to +3)^Biotin capture, anti-PTH(13-34) HRP detection, n = 2 to 4

Molecule: PTH(2-34): synthetic amino-terminally shortened peptide (VSEIQLMHNLGKHLNSMERVEWLRKKLQDVHNF-NH2; UniProt P01270 33-65, looked up, fragment)
Detection / cross-reactivity (in words) [1, 4]: only minimal cross-reactivity at very high concentrations

EC50 ([2]; synthetic peptides, mean ± SEM, n = 3 (Fig. 2B), read-out: EC50 for cAMP formation): 0.5 ± 0.3 nM | EC50 (human PTHR1): 3.2 ± 0.9 nM
Molecule: CC[C@H](C)[C@H](NC(=O)[C@H](CCC(=O)O)NC(=O)[C@H](CO)NC(=O)[C@@H](NC(=O)[C@@H]1CCCN1)C(C)C)C(=O)N[C@@H](CCC(N)=O)C(=O)N[C@@H](CC(C)C)C(=O)N[C@@H](CCSC)C(=O)N[C@@H](Cc1c[nH]cn1)C(=O)N[C@@H](CC(N)=O)C(=O)N[C@@H](CC(C)C)C(=O)NCC(=O)N[C@@H](CCCCN)C(=O)N[C@@H](Cc1c[nH]cn1)C(=O)N[C@@H](CC(C)C)C(=O)N[C@@H](CC(N)=O)C(=O)N[C@@H](CO)C(=O)N[C@@H](CCSC)C(=O)N[C@@H](CCC(=O)O)C(=O)N[C@@H](CCCNC(=N)N)C(=O)N[C@H](C(=O)N[C@@H](CCC(=O)O)C(=O)N[C@@H](Cc1c[nH]c2ccccc12)C(=O)N[C@@H](CC(C)C)C(=O)N[C@@H](CCCNC(=N)N)C(=O)N[C@@H](CCCCN)C(=O)N[C@@H](CCCCN)C(=O)N[C@@H](CC(C)C)C(=O)N[C@@H](CCC(N)=O)C(=O)N[C@@H](CC(=O)O)C(=O)N[C@H](C(=O)N[C@@H](Cc1c[nH]cn1)C(=O)N[C@@H](CC(N)=O)C(=O)N[C@@H](Cc1ccccc1)C(N)=O)C(C)C)C(C)C [[P1]PTH(1-34)]

Molecule: PTH(3-34): synthetic amino-terminally shortened peptide (SEIQLMHNLGKHLNSMERVEWLRKKLQDVHNF-NH2; UniProt P01270 34-65, looked up, fragment)
Detection / cross-reactivity (in words) [1, 4]: not detected at all

Biological activity relative to corresponding PTH(1-34) analog (in words) [2]: more than an order of magnitude lower | Maximum cAMP formation relative to [S1]PTH(1-34) ([2]; furin-treated, maximum at 10^−7 M): 115.7 ± 8.6% | EC50 ([2]; no furin, [S1] series (Fig. 3A), n = 2, top constrained to maximum cAMP by PTH(1-34) at 10^−7 M, read-out: EC50 for cAMP formation, without furin (curve top constrained)): 16.4 ± 4.7 nM | EC50 ([2]; with Decanoyl-RVKR-CMK (3 μL of 50 μM), Fig. 3A, n = 2, top constrained to maximum cAMP by PTH(1-34) at 10^−7 M, read-out: Estimated EC50 for cAMP formation, with furin inhibitor): 272 ± 166 nM
Molecule: [S1]PTH(−6 to +34): synthetic proPTH(−6 to +34) with serine at position 1
Cleavage by furin (furin): after incubation with furin, most of the peptide eluted at fraction #29 (55% ACN) | Biological activity relative to corresponding PTH(1-34) analog (in words) ([2]; listed as pro[S1]PTH(−6 to +34)): much less bioactivity than the corresponding PTH(1-34) analogs | Detection / cross-reactivity (in words) [1, 4]: detected equivalently | Detection / cross-reactivity (in words) ([1]; anti-[P1]PTH(−6 to +3)^Biotin capture, anti-PTH(13-34) HRP detection, n = 2 to 4, listed as [S1]PTH(-6 to +34)): detected equally well | Reduction of detection after incubation with furin ([1]; furin-treated): at least 10 fold

Molecule: PTH(4-34): synthetic amino-terminally shortened peptide (EIQLMHNLGKHLNSMERVEWLRKKLQDVHNF-NH2; UniProt P01270 35-65, looked up, fragment)
Detection / cross-reactivity (in words) [1, 4]: not detected at all

Half maximum binding of the anti-pro[P1]PTH^HRP detection antibody ([3]; capture anti-PTH(39-84), HRP detection, CM standard): 1,032 pg/mL | Half-maximal binding [1, 4]: 1,330 pg/mL
B1: pro[P1]PTH: mutant pro-hormone secreted by COS-7 cells expressing prepro[P1]PTH(1-84) and present in patients' plasma (protein, UniProt P01270 26-115, looked up, variant S1P)
pro-form: KSVKKRPVSEIQLMHNLGKHLNSMERVEWLRKKLQDVHNFVALGAPLAPRDAGSQRPRKKEDNVLVESHEKSLGEADKADVNVLTKAKSQ
modifications: pro-form
notes: mutant pro-hormone secreted by COS-7 cells expressing prepro[P1]PTH(1-84) and present in patients' plasma

B2: SVSEIQ … LMHNLGKHLNSMERVEWLRKKLQDVHNFVALGAPLAPRDAGSQRPRKKEDNVLVESHEKSLGEADKADVNVLTKAKSQ (protein, UniProt P01270 32-115, looked up)
Parathyroid hormone: SVSEIQLMHNLGKHLNSMERVEWLRKKLQDVHNFVALGAPLAPRDAGSQRPRKKEDNVLVESHEKSLGEADKADVNVLTKAKSQ
modifications: Parathyroid hormone
notes: Recombinant PTH(1-84) was from Chugai Pharmaceutical Co., Ltd
Detection / cross-reactivity in pro[P1]PTH assay ([3]; vs. pro[P1]PTH, up to very high concentrations): barely detected; also recorded: minimal even at very high concentrations; also recorded: extremely low

— paper PMC9974466 (Proceedings of the National Academy of Sciences of the …, 2023)
